Results as given in paper PMC5428781, “Novel insights into the interaction of UBA5 with UFM1 via a UFM1-interacting sequence” (Scientific Reports, 2017).
Ends that are not written are not given here. fluorescein = fluorescein label on the N-terminus

Molecular target: T1, ubiquitin-fold modifier 1 (UFM1) (human, UniProt P61960 1-83)
T1 construct: ubiquitin-fold modifier 1 (UFM1), human; the form that ends at Gly 83 (the residues missing in the models are counted up to Gly 83); pET15b, N-terminal His6 followed by a TEV site; purified by the protocol of the UBA5 constructs, which removes the tag; In solution a monomer and a fraction of dimer; also called UFM1 WT; UFM1 alone; source: E. coli, purified (His-Trap, TEV cleavage, second …)
T1 sequence (P61960 1-83): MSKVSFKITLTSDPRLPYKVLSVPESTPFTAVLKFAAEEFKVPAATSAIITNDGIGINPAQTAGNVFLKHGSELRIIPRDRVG
Assay: fluorescence polarisation; UFM1 at various concentrations with 120 nM N-terminal fluorescein-labeled UIS peptide; 50 mM Hepes pH 7.5, 150 mM NaCl, 5% glycerol, 0.2 mg/ml BSA; room temperature; triplicate; one site specific binding fit
Conditions: both partners purified

Kd: 8.47 µM
B1: fluorescein-labeled UIS peptide (amino acids 334–346 of UBA5) (peptide, UniProt Q9GZZ9 334-346, looked up)
peptide: fluorescein-IIHEDNEWGIELV
notes: source: synthetic peptide
